How the values were obtained:
DG-PprI (IrrE) [1] = target: T1, DG-PprI (IrrE) (Deinococcus geothermalis, UniProt Q1J1D6 1-289); test: EMSA; 1 or 2 uM protein, 0.1 uM RNA; EMSA: 150 mM NaCl, 20 mM Tris-HCl pH 8.0, 0.1 mg/ml BSA, 0.1 uM FAM-labeled nucleic acid, 0/1/2 uM protein, room temperature 30 min, 10% native PAGE in 1x TB; conditions: protein: recombinant; tags: tag removed; label: 5' FAM
T1 sequence: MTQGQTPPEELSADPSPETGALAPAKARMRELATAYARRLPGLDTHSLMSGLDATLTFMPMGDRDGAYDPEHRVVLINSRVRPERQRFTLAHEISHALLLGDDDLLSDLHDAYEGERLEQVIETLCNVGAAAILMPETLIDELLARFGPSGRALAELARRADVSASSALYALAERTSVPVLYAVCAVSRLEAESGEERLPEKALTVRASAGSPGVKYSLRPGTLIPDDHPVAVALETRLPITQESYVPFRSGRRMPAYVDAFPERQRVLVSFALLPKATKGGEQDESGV

DG-PprI (IrrE) [2] = target: T1, DG-PprI (IrrE); test: X-ray crystallography; Mn2+; 2.2 A; PprI dimer in asymmetric unit; EMSA: 150 mM NaCl, 20 mM Tris-HCl pH 8.0, 0.1 mg/ml BSA, 0.1 uM FAM-labeled nucleic acid, 0/1/2 uM protein, room temperature 30 min, 10% native PAGE in 1x TB; conditions: protein: recombinant; tags: tag removed
DG-PprI (IrrE) [3] = target: T1, DG-PprI (IrrE); test: EMSA; 1 or 2 uM protein, 0.1 uM DNA; EMSA: 150 mM NaCl, 20 mM Tris-HCl pH 8.0, 0.1 mg/ml BSA, 0.1 uM FAM-labeled nucleic acid, 0/1/2 uM protein, room temperature 30 min, 10% native PAGE in 1x TB; conditions: protein: recombinant, tags: tag removed

B1: 35nt RNA (ssRNA)
RNA: CGCUCUUCGCCAUUCUCUUGAAGUUUCAAACUUGG
DG-PprI (IrrE) [1]
  binding result: no binding

B2: 29nt ssDNA (co-crystal) (ssDNA)
DNA: TCATGAGCAGTTTTTTTTTTTTTTTTTTT
DG-PprI (IrrE) [2]
  binding result: binds

B3: 35nt ssDNA (ssDNA)
DNA: CGCTCTTCGCCATTCTCTTGAAGTTTCAAACTTGG
DG-PprI (IrrE) [3]; label: 5' FAM
  binding result: binds

B4: 35 bp dsDNA (dsDNA)
DNA 1: B3 DNA
DNA 2: CCAAGTTTGAAACTTCAAGAGAATGGCGAAGAGCG
DG-PprI (IrrE) [3]; label: 5' FAM on F strand, blunt
  binding result: no binding
